These substances were tested against HLA-A*02:01 (Homo sapiens, UniProt P04439, D140Y/D185E/D98H/E176V/E277Q/G131W/G231S/I119V/I121R/I166T/I218V/L300P/L318F/N151K/N90K/P208A/P217A/Q86G/Q94H/R138H/R169H/T345S) (assay: MHC binding assay (UV-ligand exchange, ELISA, peptide exchange yield)). Conditions: binding of HLA-class I restricted peptides to HLA-A*02:01.
Summary of the method: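 Peptide–HLA-A*02:01 complexes made by UV-ligand exchange of a UV-cleavable peptide for the test peptide. Exchange yield measured by ELISA: 100-fold diluted monomers captured on streptavidin, 1 h at 37° C., detected with HRP anti-β2m and TMB, absorbance at 450 nm.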

Substance	Peptide exchange (MHC class I binding score, peptide exchange yield)
288 (NLINEINGV; listed as Homo sapiens) [compound 288]	″+++″ (≥50% = +++)
100 (YLLSTNAQL; listed as Homo sapiens) [compound 100]	″++++″ (≥75% = ++++)
275 (YLVYILNEL; listed as Homo sapiens) [compound 275]	″++″ (≥20% = ++)
144 (YIMEPSIFNTL; listed as Homo sapiens) [compound 144]	″+++″ (≥50% = +++)
391 (YVYPQRLNFV; listed as Homo sapiens) [compound 391]	″+++″ (≥50% = +++)
398 (KLLEEDGTIITL; listed as Homo sapiens) [compound 398]	″++″ (≥20% = ++)
16 (VLFQGQASL; listed as Homo sapiens) [compound 16]	″+++″ (≥50% = +++)
369 (GLFPEHLIDV; listed as Homo sapiens) [compound 369]	″+++″ (≥50% = +++)
277 (LLPPLESLATV; listed as Homo sapiens) [compound 277]	″++″ (≥20% = ++)
375 (SLTETIEGV; listed as Homo sapiens) [compound 375]	″++″ (≥20% = ++)
95 (SVIPQIQKV; listed as Homo sapiens) [compound 95]	″+++″ (≥50% = +++)
267 (ALQDFLLSV; listed as Homo sapiens) [compound 267]	″+++″ (≥50% = +++)
77 (ILVEADGAWVV; listed as Homo sapiens) [compound 77]	″++++″ (≥75% = ++++)
295 (VLDRESPNV; listed as Homo sapiens) [compound 295]	″+++″ (≥50% = +++)
27 (ILADIVISA; listed as Homo sapiens) [compound 27]	″+++″ (≥50% = +++)
170 (RLQETLSAA; listed as Homo sapiens) [compound 170]	″+++″ (≥50% = +++)

Substance	Peptide exchange (MHC class I binding score, peptide exchange yield)
350 (ALLDVTHSELTV; listed as Homo sapiens) [compound 350]	″+++″ (≥50% = +++)
343 (SLLEVNEESTV; listed as Homo sapiens) [compound 343]	″+++″ (≥50% = +++)
206 (VLQEGKLQKLAQL; listed as Homo sapiens) [compound 206]	″+++″ (≥50% = +++)
179 (KVLNELYTV; listed as Homo sapiens) [compound 179]	″+++″ (≥50% = +++)
301 (FLVEDLVDSL; listed as Homo sapiens) [compound 301]	″+++″ (≥50% = +++)
132 (LLVEQPPLAGV; listed as Homo sapiens) [compound 132]	″+++″ (≥50% = +++)
403 (KLYDRILRV; listed as Homo sapiens) [compound 403]	″++″ (≥20% = ++)
217 (ALIHPVSTV; listed as Homo sapiens) [compound 217]	″++″ (≥20% = ++)
123 (NLWDLTDASVV; listed as Homo sapiens) [compound 123]	″+++″ (≥50% = +++)
19 (FMVDNEAIYDI; listed as Homo sapiens) [compound 19]	″++++″ (≥75% = ++++)
146 (SLATAGDGLIEL; listed as Homo sapiens) [compound 146]	″++″ (≥20% = ++)
222 (NLIENVQRL; listed as Homo sapiens) [compound 222]	″++″ (≥20% = ++)
302 (ALLQEGEVYSA; listed as Homo sapiens) [compound 302]	″+++″ (≥50% = +++)
427 (ALLPLSPYL; listed as Homo sapiens) [compound 427]	″+++″ (≥50% = +++)
32 (KLDDLTQDLTV; listed as Homo sapiens) [compound 32]	″++″ (≥20% = ++)
60 (SLTIDGIYYV; listed as Homo sapiens) [compound 60]	″++++″ (≥75% = ++++)

Now from value to substance:

Peptide exchange (MHC class I binding score, peptide exchange yield)	Substance
″+++″ (≥50% = +++)	577 (VMFEDGVLMRL; listed as Homo sapiens) [compound 577]
″+++″ (≥50% = +++)	498 (KLWTGGLDNTV; listed as Homo sapiens) [compound 498]
″+++″ (≥50% = +++)	531 (YTLPIASSIRL; listed as Homo sapiens) [compound 531]
″+++″ (≥50% = +++)	592 (RLLSAAENFL; listed as Homo sapiens) [compound 592]
″++″ (≥20% = ++)	548 (ALWENPESGEL; listed as Homo sapiens) [compound 548]
″+++″ (≥50% = +++)	475 (LLLNEEALAQI; listed as Homo sapiens) [compound 475]
″+++″ (≥50% = +++)	605 (KLYEAVPQL; listed as Homo sapiens) [compound 605]
″+++″ (≥50% = +++)	607 (RLYSGISGLEL; listed as Homo sapiens) [compound 607]
″++″ (≥20% = ++)	615 (VLPPDTDPA; listed as Homo sapiens) [compound 615]
″+++″ (≥50% = +++)	437 (SMAPGLVIQAV; listed as Homo sapiens) [compound 437]
″+++″ (≥50% = +++)	467 (FLAKDFNFL; listed as Homo sapiens) [compound 467]
″++″ (≥20% = ++)	428 (KLGHTDILVGV; listed as Homo sapiens) [compound 428]
″+++″ (≥50% = +++)	500 (SLMEDQVLQL; listed as Homo sapiens) [compound 500]
″+++″ (≥50% = +++)	623 (YLVEDIQHI; listed as Homo sapiens) [compound 623]
″+++″ (≥50% = +++)	610 (LLAPTPYIIGV; listed as Homo sapiens) [compound 610]
″+++″ (≥50% = +++)	571 (LLLTTIPQI; listed as Homo sapiens) [compound 571]
″++″ (≥20% = ++)	522 (TLWYRSPEV; listed as Homo sapiens) [compound 522]
″++″ (≥20% = ++)	505 (SLAPGDVVRQV; listed as Homo sapiens) [compound 505]
